In patent publication US8962795B2, “Factor H binding peptides and uses thereof” (The Trustees of the University of Pennsylvania, priority 2010, dated 2015):
Values belong to the sequence of their own block, whether it stands above or below them. Positions of bridges follow the written chain, without caps; N, C: chain ends. No end group written: not given here.

Assays:
[1] = molecular target: T1, factor H (Homo sapiens, UniProt P08603); experiment: Monoclonal phage ELISA, binding of phage clones to factor H (binding area localisation); conditions: SCR5-18 attributed in absence of stable binding to N- or C-terminus of factor H
T1 construct: Human factor H was purified from normal human serum (NHS) by 5-12% PEG precipitation; from tissue; host or cells: normal human serum (NHS)
T1 sequence (P08603 19-1231): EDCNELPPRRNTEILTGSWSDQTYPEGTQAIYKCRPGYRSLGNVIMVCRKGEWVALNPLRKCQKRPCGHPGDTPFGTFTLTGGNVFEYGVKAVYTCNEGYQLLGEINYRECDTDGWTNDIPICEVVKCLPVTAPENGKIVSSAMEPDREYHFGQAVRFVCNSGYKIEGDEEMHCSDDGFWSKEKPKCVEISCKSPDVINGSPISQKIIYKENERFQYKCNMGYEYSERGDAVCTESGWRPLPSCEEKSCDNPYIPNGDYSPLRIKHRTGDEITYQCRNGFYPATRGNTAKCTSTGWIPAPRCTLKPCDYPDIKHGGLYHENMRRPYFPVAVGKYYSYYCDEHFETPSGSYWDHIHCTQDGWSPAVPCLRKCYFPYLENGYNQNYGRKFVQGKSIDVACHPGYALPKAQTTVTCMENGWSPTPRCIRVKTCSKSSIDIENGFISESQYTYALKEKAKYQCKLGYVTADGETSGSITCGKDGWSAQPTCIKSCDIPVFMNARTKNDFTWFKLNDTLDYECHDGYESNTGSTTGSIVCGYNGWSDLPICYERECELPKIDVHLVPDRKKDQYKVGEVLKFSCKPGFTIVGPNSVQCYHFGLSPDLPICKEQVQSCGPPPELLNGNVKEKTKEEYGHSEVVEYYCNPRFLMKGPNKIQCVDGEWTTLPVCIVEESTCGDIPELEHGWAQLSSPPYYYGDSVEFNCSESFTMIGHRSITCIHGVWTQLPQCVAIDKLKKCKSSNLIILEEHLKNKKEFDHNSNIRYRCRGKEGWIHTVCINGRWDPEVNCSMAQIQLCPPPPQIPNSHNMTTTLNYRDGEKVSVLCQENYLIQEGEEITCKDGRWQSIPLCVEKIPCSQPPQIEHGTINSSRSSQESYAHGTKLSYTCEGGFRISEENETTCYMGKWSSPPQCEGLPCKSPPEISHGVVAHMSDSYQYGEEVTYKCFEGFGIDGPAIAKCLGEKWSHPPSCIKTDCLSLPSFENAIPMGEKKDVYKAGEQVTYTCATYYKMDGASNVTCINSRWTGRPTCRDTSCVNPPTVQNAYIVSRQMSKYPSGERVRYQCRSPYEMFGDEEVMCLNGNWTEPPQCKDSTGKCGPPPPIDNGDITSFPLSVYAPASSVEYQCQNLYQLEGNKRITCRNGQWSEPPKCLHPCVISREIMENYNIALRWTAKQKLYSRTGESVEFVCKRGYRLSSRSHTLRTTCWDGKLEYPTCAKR
Method: (§1) Microtiter wells were coated overnight with either factor H or BSA at 5 μg/mL in PBS at 4° C., and saturated with 5% non-fat milk in PBST for 1 h. Completely separated individual phage plaques from the third round of screening were picked and amplified. Phage particles of each amplified individual phage plaque were added to both factor H- and BSA-coated wells in parallel and allowed to bind at RT for 1 h. After six washes with PBST, bound phages were detected with HRP-conjugated anti-M13 monoclonal antibody (GE Healthcare), using ABTS (Roche) for color development. Clones that bound to factor H but not to BSA were considered positive; single-stranded DNA from positive clones was prepared using an M13 kit (Qiagen, Valencia, Calif.) and sequenced by the DNA sequencing facility of the University of Pennsylvania.
(§2) To localize the binding sites on factor H of the positive clones, we further tested each clone by monoclonal phage ELISA for binding to factor H and its N- and C-terminal fragments, i.e. fH1-4 and fH19-20.

[2] = system: Sheep erythrocytes; experiment: Hemolytic assay (factor H cell-surface binding); assay type: cell-based; conditions: for effect on hemolytic assay: peptide expressed as fusion protein with phage PIII domain, not shown
Method: (§3) To determine whether the binding of the 5C6 peptide interferes with the regulatory activity and cell-surface binding capacity of factor H, we performed factor H cofactor activity assays using purified C3b, factor H and factor I, as well as hemolytic assays, both which were performed in the presence of different concentrations of the 5C6 peptide. The hemolysis assay experiments were repeated at least three times using lepirudin plasma from different blood donors.
Hemolytic assays were performed to determine whether the peptide altered factor H cell-surface binding activity. Sheep erythrocytes (Cocalico Biological Inc., Reamstown, Pa.) were washed with VBS containing 5 mM Mg^2+/EGTA (VBS-Mg^2+/EGTA) until the supernatant was clear. The assay was titrated by lysing erythrocytes in serial dilution with water in a final volume of 300 μl. The OD405 of the supernatants was measured, and the amount of the erythrocytes yielding an OD405 of ˜1 was used in the assay. Serial dilutions of the 5C6 peptide or monoclonal antibody MH10 (which binds fH19-20 and inhibits factor H cell surface binding) with the determined amount of sheep erythrocytes and lepirudin plasma diluted 1:10 in VBS-Mg^2+/EGTA in a final volume of 300 μL were incubated at 37° C. for 1 h in a shaking water bath. After centrifugation the OD405 of the supernatants was measured, and the OD value was used to represent the cell lysis.

[3] = molecular target: T2, fH19-20 (Homo sapiens, UniProt P08603); experiment: Monoclonal phage ELISA, binding of phage clones to fH19-20
T2 sequence (P08603 1107-1231): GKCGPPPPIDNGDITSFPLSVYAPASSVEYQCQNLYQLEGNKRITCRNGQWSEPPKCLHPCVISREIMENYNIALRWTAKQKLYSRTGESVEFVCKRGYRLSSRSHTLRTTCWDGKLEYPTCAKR
Method: as §1, §2

[4] = molecular target: T1, factor H; experiment: Capture of factor H from plasma by immobilized peptide; assay type: binding; conditions: vs control peptide
Method: Two approaches were used to evaluate the binding of synthetic peptides to factor H. First, we used peptide-phage competition assays, in which serially diluted synthetic peptide was added to its parent phage at the step of phage binding to coated factor H. The rest of the steps were performed as described above for monoclonal phage ELISA. Second, ELISA experiments were used to evaluate the binding of factor H to the immobilized peptide. Microtiter plates were coated with streptavidin (New England Biolabs) at 10 μg/ml in PBS at 4° C. overnight, and saturated with 2% BSA in PBS. […] After 1 h of binding, the plates were washed, and bound factor H was detected with goat anti-human factor H polyclonal antibody (Quidel, San Diego, Calif.), followed by HRP-conjugated rabbit anti-goat IgG (Bio-Rad). […]
Polystyrene microtiter wells, which served as a model biomaterial, were coated overnight with streptavidin (10 μg/ml in PBS) at 4° C. […] Bound fragments of activated C3 were detected with an HRP-conjugated goat anti-human C3 polyclonal antibody (Cappel, Aurora, Ohio). In parallel, captured factor H from serum was detected with goat anti-human factor H polyclonal antibody followed by HRP-conjugated rabbit anti-goat IgG in duplicate wells as described above.

[5] = molecular target: T3, fH1-4 (Homo sapiens, UniProt P08603); experiment: SPR, fH1-4 fragment on surface-bound peptide; assay type: binding; conditions: fragment 100 nM
T3 construct: made in house
T3 sequence (P08603 19-264): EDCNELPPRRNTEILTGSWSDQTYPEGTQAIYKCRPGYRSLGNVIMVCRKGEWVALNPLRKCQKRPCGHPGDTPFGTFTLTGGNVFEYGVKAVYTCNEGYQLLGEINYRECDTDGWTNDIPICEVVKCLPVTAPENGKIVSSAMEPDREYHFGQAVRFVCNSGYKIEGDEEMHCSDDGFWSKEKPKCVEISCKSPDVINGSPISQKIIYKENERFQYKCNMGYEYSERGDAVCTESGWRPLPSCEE
Method: (§4) The binding of factor H with surface-bound 5C6 peptide was further characterized using surface plasmon resonance (SPR) on a ProteOn XPR36 instrument (Bio-Rad Inc., Hercules, Calif.) using PBST (10 mM sodium phosphate, 150 mM NaCl, 0.005% Tween 20) as running buffer. Streptavidin (50 μg/ml in 10 mM sodium acetate pH 5.0) was immobilized on a GLC sensor chip at 30° C. using amine coupling. The biotinylated 5C6 peptide and a biotinylated control peptide (linear compstatin; see above) were captured on separate streptavidin-coated channels to a density of ˜200 resonance units (RU). Purified factor H (Complement Technologies, Tyler, Tex.) or recombinant fragments fH1-4 and fH19-20 were injected at a concentration of 100 nM for 2 rain at a flow rate of 25 μl/min with a dissociation phase of 6 min. A single injection of 2 M NaCl for 30 s was used to regenerate the surface between injections. Data were processed using ProteOn Manager software by subtracting the signals from interspots and a blank streptavidin channel. In order to estimate the apparent binding affinity, a twofold dilution series of factor H (0.24-500 nM) was injected using the same protocol and fitted to various kinetic models using ProteOn Manager. […]

[6] = molecular target: T1, factor H; experiment: ELISA, binding of purified factor H to immobilized biotinylated peptide; conditions: biotinylated peptide captured by coated streptavidin, polyclonal antibody detection
Method: (§5) Two approaches were used to evaluate the binding of synthetic peptides to factor H. First, we used peptide-phage competition assays, in which serially diluted synthetic peptide was added to its parent phage at the step of phage binding to coated factor H. The rest of the steps were performed as described above for monoclonal phage ELISA. Second, ELISA experiments were used to evaluate the binding of factor H to the immobilized peptide. Microtiter plates were coated with streptavidin (New England Biolabs) at 10 μg/ml in PBS at 4° C. overnight, and saturated with 2% BSA in PBS. After washing, either the biotinylated 5C6 peptide or a biotinylated control peptide (linear compstatin; IAVVQDWGHHRAT; SEQ ID NO:10) was added at 10 μg/ml and allowed to bind at RT for 30 min. The wells were washed again, and factor H serially diluted in PBS, starting with 2.5 μg/ml, was added. After 1 h of binding, the plates were washed, and bound factor H was detected with goat anti-human factor H polyclonal antibody (Quidel, San Diego, Calif.), followed by HRP-conjugated rabbit anti-goat IgG (Bio-Rad). […]

[7] = molecular target: T2, fH19-20; experiment: SPR, fH19-20 fragment on surface-bound peptide; assay type: binding; conditions: fragment 100 nM
Method: as §4

[8] = molecular target: T1, factor H; experiment: SPR, factor H on surface-bound peptide; assay type: binding; conditions: for SPR binding of factor H to immobilized peptide: biotinylated peptide on streptavidin chip, factor H 100 nM
Method: The binding of factor H with surface-bound 5C6 peptide was further characterized using surface plasmon resonance (SPR) on a ProteOn XPR36 instrument (Bio-Rad Inc., Hercules, Calif.) using PBST (10 mM sodium phosphate, 150 mM NaCl, 0.005% Tween 20) as running buffer. Streptavidin (50 μg/ml in 10 mM sodium acetate pH 5.0) was immobilized on a GLC sensor chip at 30° C. using amine coupling. The biotinylated 5C6 peptide and a biotinylated control peptide (linear compstatin; see above) were captured on separate streptavidin-coated channels to a density of ˜200 resonance units (RU). Purified factor H (Complement Technologies, Tyler, Tex.) or recombinant fragments fH1-4 and fH19-20 were injected at a concentration of 100 nM for 2 rain at a flow rate of 25 μl/min with a dissociation phase of 6 min. A single injection of 2 M NaCl for 30 s was used to regenerate the surface between injections. Data were processed using ProteOn Manager software by subtracting the signals from interspots and a blank streptavidin channel. In order to estimate the apparent binding affinity, a twofold dilution series of factor H (0.24-500 nM) was injected using the same protocol and fitted to various kinetic models using ProteOn Manager. In order to exclude sensor chip matrix-specific surface binding, the same experiment was repeated on Biacore 3000 instrument (GE Healthcare) using a SA chip under the same conditions as described above.

[9] = system: AP complement activation (surface-bound activated C3); experiment: Inhibition of biomaterial-induced AP activation by immobilized peptide (surface-bound activated C3); assay type: biochemical, human
Method: Polystyrene microtiter wells, which served as a model biomaterial, were coated overnight with streptavidin (10 μg/ml in PBS) at 4° C. After washing, the biotinylated 5C6 peptide and the control peptide (10 μg/ml in PBS) were added to the wells and incubated at RT for 30 min. The wells were again washed and serially diluted lepirudin plasma in VBS-Mg^2+/EGTA was added and incubated at RT for 1 h. In some experiments intended to monitor the inhibition of AP by immobilized peptide on a HSA monolayer, the washed wells were saturated with 2% HSA in PBS for 1 h, prior to the addition of plasma. In both series of experiments, the wells were then washed, and the binding sites were saturated with 2% BSA in PBS for 1 h. Bound fragments of activated C3 were detected with an HRP-conjugated goat anti-human C3 polyclonal antibody (Cappel, Aurora, Ohio). In parallel, captured factor H from serum was detected with goat anti-human factor H polyclonal antibody followed by HRP-conjugated rabbit anti-goat IgG in duplicate wells as described above.

[10] = molecular target: T1, factor H; experiment: Factor H concentration in plasma after incubation on peptide-coated surface; conditions: data not shown
[11] = molecular target: T1, factor H; experiment: Peptide-phage competition assay; assay type: binding; conditions: serially diluted synthetic peptide; coated factor H
Method: as §5

[12] = molecular target: T4, factor H cofactor activity (Homo sapiens, UniProt P08603); experiment: Factor H cofactor activity assay (factor I-mediated cleavage of C3b); assay type: biochemical; conditions: for effect on cofactor assay: peptide expressed as fusion protein with phage PIII domain, not shown
T4 construct: Human factor H was purified from normal human serum (NHS) by 5-12% PEG precipitation; from tissue; host or cells: normal human serum (factor H, C3); factor I from unnamed 'other sources'
T4 sequence (P08603 19-1231): as the sequence (P08603 19-1231) above
Method: as §3
The factor H cofactor activity assay was performed according to known methods. In brief, 1.14 μM C3b, 16 nM factor I, and 72 nM factor H were incubated with various amounts of the 5C6 peptide (0.4, 4, and 40 μM, respectively) in PBS at 37° C. for 1 hr in a final volume of 20 μl. The reaction was terminated by adding SDS-PAGE loading buffer, and the samples were analyzed by 8% SDS-PAGE under reducing conditions, followed by Coomassie blue staining.

[13] = molecular target: T3, fH1-4; experiment: Monoclonal phage ELISA, binding of phage clones to fH1-4
Method: as §1, §2

Sequence: ASPSWCSYSHWCRH [5D1]
- Binding area on factor H [1]: SCR5-18

Sequence: ASSGMCFTKKTVLC [4A1]
- effect on hemolytic assay [2]: affected
- binding of phage clone to fH19-20 [3]: bind to the C-terminal two SCR of factor H
- Binding area on factor H [1]: SCR19-20

Sequence: IAVVQDWGHHRAT [Control Peptide (LC), reference compound]
- binding signal for factor H on immobilized peptide (ELISA) [6]: not
- SPR binding of factor H to immobilized peptide [8]: no significant binding

The next lines start with results.

- Binding area on factor H [1]: SCR5-18
Sequence: ASSCMYSYWCTH [5-2B2]

- Binding area on factor H [1]: SCR5-18
Sequence: ASSFKCDYSHWCLH [5E10]

- Binding area on factor H [1]: SCR5-18
Sequence: ASSNVCSYSYWCAH [5G11]

- factor H capture from plasma by immobilized peptide ([4]; polystyrene with HSA monolayer): pronounced factor H capture
- factor H capture from plasma by immobilized peptide ([4]; polystyrene without HSA pre-saturation): captured more factor H
- SPR binding of fH1-4 fragment to immobilized peptide [5]: no binding
- binding signal for factor H on immobilized peptide (ELISA) [6]: strong binding signal
- SPR binding of factor H to immobilized peptide [8]: high binding activity and stability
- factor H concentration in plasma incubated on peptide-coated surface [10]: no significant decline
- inhibition of binding of the other class 3 phages to factor H by 5C6 peptide [11]: strongly inhibited
- effect on cofactor assay [12]: no such effect
- effect on factor H cofactor activity ([12]; synthetic peptide up to 40 μM, 550-fold excess over factor H (72 nM)): did not inhibit
- Binding area on factor H [1]: SCR5-18
Sequence: ASSSRCTYDHWCSH (disulfide 6-12 (inferred); not fully specified; also: biotinylated) [5C6, used biotinylated when immobilized]
- lysis of sheep erythrocytes ([2]; 10-fold diluted lepirudin plasma, peptide up to 40 μM): No lysis
- effect on hemolytic assay [2]: no such effect
- SPR binding of fH19-20 fragment to immobilized peptide [7]: a significant SPR response could also be detected for the fH19-20 fragment, this interaction was not stable
- SPR apparent binding affinity for factor H ([8]; dilution series of factor H 0.24-500 nM, deviation from single-site model, apparent): concentration-dependent binding with high affinity
- complement activation on peptide-immobilized surface ([9]; polystyrene with HSA monolayer, lepirudin plasma in VBS-Mg2+/EGTA, vs control peptide): substantially inhibited
- complement activation on peptide-immobilized surface ([9]; polystyrene without HSA pre-saturation, plasma): strongly inhibited
- inhibition of parent phage binding to factor H by synthetic peptide [11]: inhibited its parent phages from binding to factor H in a dose-dependent manner

- effect on cofactor assay [12]: affected
- Binding area on factor H [1]: SCR1-4
Sequence: ASSYDVGYSHDCRF [5-2C6]
- binding of phage clone to fH1-4 [13]: bound to the N-terminal regulatory region of factor H
